Measurements taken from patent publication US20250191685.

Test system: KLF6 RTF CDKN1C #200, 8 phosphate-contact R to Q 8 phosphate-contacting Arg to Gln (Homo sapiens)
Test: cell_activity
Details: on-target activity reduced by only 12%; only CDKN1C upregulated in RNA-seq

CDKN1C promoter site #200 was tested, and the binding signal (% of unmodified) was 88.
